Data taken from patent publication US20190225652A1, “GENERATION OF PEPTIDES” (Hexima Limited, priority 2015, published 2019).

Tests used:
[1] = tested on: rOaAEP1b, rOaAEP3, rOaAEP4 and rOaAEP5; experiment: Cyclization assay with rOaAEP1b, rOaAEP3, rOaAEP4 and rOaAEP5 (MALDI/ESI MS); type: biochemical, Oldenlandia affinis; conditions: peptides with added AEP recognition residues, 280 μM, enzymes 19.7 μg mL^−1 total protein, MS
Experimental: Linear target peptides (280 μM, unless otherwise indicated) were incubated with rOaAEP1b, rOaAEP3, rOaAEP4 or rOaAEP5 (total protein concentration as indicated in the description of figures) in activity buffer (50 mM sodium acetate, 50 mM NaCl, 1 mM ethylenediaminetetraacetic acid [EDTA], 0.5 μM Tris(2-carboxyethyl)phosphine hydrochloride [TCEP], pH 5). The reaction was allowed to proceed for up to 22 hours at room temperature and was analysed by matrix-assisted laser desorption/ionization mass spectrometry (MALDI MS), high performance liquid chromatography (HPLC) or nuclear magnetic resonance (NMR) as appropriate.
(§1) Cyclization or inter-molecular ligation of linear target peptides was monitored by MALDI or ESI MS. In both cases, the reaction mixture (5-50 μL) was de-salted using C18 zip tips (Millipore) and eluted in 4 μL 50-75% v/v acetonitrile, 0.1% v/v trifluoroacetic acid (TFA).
(§2) For MALDI MS, a saturated MALDI matrix solution (α-cyano-4-hyroxycinnamic acid, CHCA, Bruker) prepared in 95% v/v acetonitrile, 0.1% v/v TFA was diluted 1:22 such that the final matrix solution comprised 90% v/v acetonitrile, 0.1% v/v TFA and 1 mM NH4H2PO4. Eluted samples were mixed 1:4 with the MALDI matrix, spotted onto a MALDI plate and analyzed by an Ultraflex III TOF/TOF (Bruker) in positive reflector mode. Data were analyzed using the flexAnalysis program (Bruker).
(§3) For ESI MS, 96 μl of 75% v/v acetonitrile, 01% v/v TFA was added to the de-salted sample. The sample was then injected into a MicroTOF Q (Bruker) and data was collected in positive ionisation mode. The mass of ligated or cyclized product was determined by charge deconvolution using the Compass DataAnalysis program (Bruker).
The ability of activated AEPs (rOaAEP1b, rOaAEP3, rOaAEP4 and rOaAEP5) to cyclize peptide substrates structurally unrelated to cyclotides was tested in the cyclization assay described in the Materials and Methods. The anti-malarial peptide R1 (Harris et al. (2009) J Biol Chem 284(14):9361-9371; Harris et al. (2005) Infect Immun 73(10):6981-6989); Bac2A, a linear derivative of the bovine peptide bactenecin (Wu and Hancock (1999) Antimicrob Agents Ch 43:1274-1276); and the anti-fungal peptide EcAMP1 (Nolde et al. (2011) J Biol Chem 286(28):25145-25153) were produced with additional AEP recognition residues and used as the substrates.
To investigate the sequence requirements for in vitro cyclization, R1 was used as a model peptide. The recognition residues added to this model peptide were sequentially trimmed to determine the minimal requirements for AEP-mediated cyclization. The N- and C-terminal recognition residues were also substituted with alternate amino acids to determine if particular classes of residues were preferred for cyclization by these recombinant AEPs. The ability of activated AEPs (rOaAEP1b, rOaAEP3, rOaAEP4 and rOaAEP5) to cyclize the R1 peptide with varied flanking sequences was then tested in the cyclization assay described in the Materials and Methods (FIG. 10; Table 3).

[2] = tested on: rOaAEP1b, rOaAEP3, rOaAEP4 and rOaAEP5; experiment: Intermolecular ligation assay with recombinant AEPs; type: biochemical, Oldenlandia affinis; conditions: target 140 μM, ligation partner GLK-biotin 700 μM, enzymes 19.7 μg mL^−1, 6 h, MALDI-MS
Experimental: Target peptides (140 μM) were incubated with a ligation partner peptide (700 μM) and a recombinant AEP (rOaAEP1b, rOaAEP3, rOaAEP4 or rOaAEP5 at 19.7 μg mL^−1 total protein) in activity buffer (50 mM sodium acetate, 50 mM NaCl, 1 mM EDTA, 0.5 μM TCEP, pH 5). The reaction was allowed to proceed for up to 22 hours at room temperature and was analysed by MALDI MS or electrospray ionisation (ESI) mass spectrometry as appropriate.
as §1, §2, §3
To investigate the ability of recombinantly produced AEPs to perform inter-molecular ligation (as well as the intra-molecular ligation required to produce backbone-cyclized peptides), target peptides were incubated with ligation partner peptides as well as active enzyme (FIG. 11). The appearance of new linear peptides were tracked. […]

[3] = tested on: target peptide-linker-ubiquitin-6xHis fusion protein; experiment: AEP-mediated processing of target peptides fused to ubiquitin; type: biochemical; conditions: kalata B1-ubiquitin 260 μg mL^−1, AEP 19.7 μg mL^−1 total protein, 22 h, SDS-PAGE/anti-6xHis Western blot
[4] = Protease activity against IQF peptides; type: biochemical; conditions: for P2′ substrate specificity (wt vs L31A IQF peptide): 50 μM IQF peptides, 37° C., initial velocity
Experimental: FIG. 3 is a graphical representation showing expression of active rOaAEP1b in E. coli. (A) Pooled rOaAEP1b-containing anion exchange fractions pre- and post-activation at low pH were diluted 1:14 and tested for activity against the wildtype internally quenched fluorescence (wtIQF) peptide (11 μM) [SEQ ID NO:21]. Baseline fluorescence from a no-substrate control has been subtracted and the relative fluorescence intensity (RFU) at t=90 minutes is reported. A single representative experiment of two technical replicates is shown. (B) Activated rOaAEP1b was captured by cation exchange and the final product analyzed by SDS-PAGE followed by (i) Instant blue staining and (ii) Western blotting with anti-AEP1b polyclonal rabbit serum.
FIGS. 17A and 17B are graphical representations of substrate specificity of plant and human AEPs for wt (SEQ ID NO:21) and L31A (SEQ ID NO:25) IQF peptide substrates. Initial velocity of recombinant O. affinis AEPs (˜10 μg mL^−1 total protein) (17A) and rhuLEG (1.1 μg mL^−1 total protein) (17B) against 50 μM IQF peptide substrates is shown. The assay was conducted at 37° C. The average of two technical replicates are shown and the error bars report the range.
To assay activity of recombinant AEPs (rOaAEP1b, rOaAEP3, rOaAEP4 or rOaAEP5) against both internally-quenched and other fluorescent peptides, substrate and enzyme were diluted as appropriate in activity buffer (50 mM sodium acetate, 50 mM NaCl, 1 mM EDTA, 0.5 μM TCEP, pH 5). […] The change in fluorescence intensity over time was monitored on a SpectraMax M2 (Molecular Devices) using excitation/emission wavelengths of 320/420 nm (IQF peptides) or 360/460 nm (other fluorescent peptides). […]
IQF peptides that incorporate the P1-P4 as well as the P1′-P4′ residues are, however, effectively targeted by recombinant O. affinis AEPs. These peptides contain a fluorescence donor/quencher pair, with fluorescence observed upon the spatial separation of this pair following enzymatic cleavage. […]

[5] = Protease activity against fluorogenic substrate Z-AAN-MCA; type: biochemical; conditions: enzyme ~5 μg mL^−1 total protein, Z-AAN-MCA 100 μM, 37° C., 60 minutes
Experimental: FIG. 15 is a graphical representation of the activity of recombinant O. affinis AEPs (˜5 μg mL^−1 total protein) and rhuLEG (1 μg mL^−1 total protein) over time against the fluorogenic substrate Z-AAN-MCA (100 μM). Activity is tracked at 1 minute intervals at 37° C. for 60 minutes using excitation and emission wavelengths of 360 and 460 nm respectively. A single representative experiment is shown. RFU, relative fluorescence units.
To assay activity of recombinant AEPs (rOaAEP1b, rOaAEP3, rOaAEP4 or rOaAEP5) against both internally-quenched and other fluorescent peptides, substrate and enzyme were diluted as appropriate in activity buffer (50 mM sodium acetate, 50 mM NaCl, 1 mM EDTA, 0.5 μM TCEP, pH 5). To assay activity of recombinant human legumain (rhuLEG; R&D systems) against the same substrates, the enzyme was first activated by incubation in 50 mM sodium acetate, 100 mM NaCl, pH 4 (4 μL buffer/1 μL enzyme) for 2 hours at 37° C. Substrates and activated rhuLEG were diluted in 50 mM acetate, 0.1% v/v triton X 100, 0.5 μM TCEP pH 5.5 or in 50 mM MES, 250 mM NaCl, pH 5 as required. Diluted enzyme and substrate were added to black, flat bottomed microtiter plates in a total assay volume of 100-200 μL. The change in fluorescence intensity over time was monitored on a SpectraMax M2 (Molecular Devices) using excitation/emission wavelengths of 320/420 nm (IQF peptides) or 360/460 nm (other fluorescent peptides).
AEP activity has traditionally been tracked by monitoring cleavage of the fluorescent substrate Z-AAN-MCA (where Z is carboxybenzyl; MCA is 7-amido-4-methylcoumarin) [Saska et al. (2007) supra; Rotari et al. (2001) Biol. Chem. 382:953-959]. Cleavage C-terminal to the Asn liberates the fluorophore which then fluoresces to report substrate cleavage. […] They are Ac-YVAD-CHO, which is routinely used to identify AEP activity (Hatsugai et al. (2004) Science 305(5685): 855-858) and Ac-STRN-CHO, which represents the P1-P4 residues of the C-terminal kB1 cleavage site. These traditional routes of identifying AEP activity will therefore likely be ineffective for identification of AEPs with cyclizing ability.

Molecule	cyclization of linear precursor peptide by recombinant AEPs [1]	inter-molecular ligation, C-terminal labelling [2]	proportion of fusion protein enzymatically processed (loss of precursor) [3]	P2′ substrate specificity (wt vs L31A IQF peptide) [4]	activity against IQF peptide following low pH activation ([4]; wt IQF peptide 11 μM, fractions diluted 1:14, 90 minutes, pre- vs post-activation)	activity against Z-AAN-MCA [5]
GKVFAEFLPLFSKFGSRMHILKNGL (Target peptide; R1) [SEQ ID NO:83, R1 peptide derivative]	poor substrate for backbone cyclization	created a new linear peptide that incorporated a C-terminal biotin				
rOaAEP1b: recombinant Oldenlandia affinis asparaginyl endopeptidase OaAEP1b expressed in E. coli, activated (protein, Oldenlandia affinis OaAEP1b) MVRYLAGAVLLLVVLSVAAAVSGARDGDYLHLPSEVSRFFRPQETNDDHGEDSVGTRWAVLIAGSKGYANYRHQAGVCHAYQILKRGGLKDENIVVFMYDDIAYNESNPRPGVIINSPHGSDVYAGVPKDYTGEEVNAKNFLAAILGNKSAITGGSGKVVDSGPNDHIFIYYTDHGAAGVIGMPSKPYLYADELNDALKKKHASGTYKSLVFYLEACESGSMFEGILPEDLNIYALTSTNTTESSWCYYCPAQENPPPPEYNVCLGDLFSVAWLEDSDVQNSWYETLNQQYHHVDKRISHASHATQYGNLKLGEEGLFVYMGSNPANDNYTSLDGNALTPSSIVVNQRDADLLHLWEKFRKAPEGSARKEVAQTQIFKAMSHRVHIDSSIKLIGKLLFGIEKCTEILNAVRPAGQPLVDDWACLRSLVGTFETHCGSLSEYGMRHTRTIANICNAGISEEQMAEAASQACASIP			the bulk of the precursor was being enzymatically processed	preference for a bulky hydrophobic residue such as Leu at the P2′ position	dramatically increased	nor rOaAEP1b, rOaAEP3, rOaAEP4 or rOaAEP5 (FIG. 15) had detectable activity
rhuLEG: recombinant human legumain (R&D systems), an AEP that preferentially functions as a hydrolase (protein, UniProt Q99538 18-323, looked up) Legumain: VPIDDPEDGGKHWVVIVAGSNGWYNYRHQADACHAYQIIHRNGIPDEQIVVMMYDDIAYSEDNPTPGIVINRPNGTDVYQGVPKDYTGEDVTPQNFLAVLRGDAEAVKGIGSGKVLKSGPQDHVFIYFTDHGSTGILVFPNEDLHVKDLNETIHYMYKHKMYRKMVFYIEACESGSMMNHLPDNINVYATTAANPRESSYACYYDEKRSTYLGDWYSVNWMEDSDVEDLTKETLHKQYHLVKSHTNTSHVMQYGNKTISTMKVMQFQGMKRKASSPVPLPPVTHLDLTPSPDVPLTIMKRKLMNTN				not shared		
